Drawing on PMC3751857, this text covers release of HIV-1 YP- virus from 293T cells co-expressing Flag-DUb-TSG101 (Figure 2A, lane 3); inactive DUb*-TSG101 and DUb-TSG101 M95A had no effect for one substance.

Some results are limits rather than exact numbers.

This experiment addresses Gag of the HIV-1 YP- mutant (HIV-1 (pNL4-3)).

Turning to “Flag-DUb-TSG101 (from UniProt P10220 15-260)”, the release of HIV-1 YP- virus from 293T cells co-expressing Flag-DUb-TSG101 (Figure 2A, lane 3); inactive DUb*-TSG101 and DUb-TSG101 M95A had no effect is above 95%.
